From paper PMC9079088, “FBXO2 targets glycosylated SUN2 for ubiquitination and degradation to promote ovarian cancer development” (Cell Death & Disease, 2022)

Target: T1, HA-SUN2 (human (cDNA from 293T or A2780 cells), UniProt Q9UH99 1-717, N-glycosylation (sites not given))
T1 construct: SAD1/UNC84 domain protein-2 (SUN2), cloned from cDNAs of 293T or A2780 cells; also called SAD1/UNC84 domain protein-2; source: HEK293T, transiently transfected; immunoprecipitated with anti-HA resin and eluted with HA peptide, or in lysate
T1 sequence (looked up): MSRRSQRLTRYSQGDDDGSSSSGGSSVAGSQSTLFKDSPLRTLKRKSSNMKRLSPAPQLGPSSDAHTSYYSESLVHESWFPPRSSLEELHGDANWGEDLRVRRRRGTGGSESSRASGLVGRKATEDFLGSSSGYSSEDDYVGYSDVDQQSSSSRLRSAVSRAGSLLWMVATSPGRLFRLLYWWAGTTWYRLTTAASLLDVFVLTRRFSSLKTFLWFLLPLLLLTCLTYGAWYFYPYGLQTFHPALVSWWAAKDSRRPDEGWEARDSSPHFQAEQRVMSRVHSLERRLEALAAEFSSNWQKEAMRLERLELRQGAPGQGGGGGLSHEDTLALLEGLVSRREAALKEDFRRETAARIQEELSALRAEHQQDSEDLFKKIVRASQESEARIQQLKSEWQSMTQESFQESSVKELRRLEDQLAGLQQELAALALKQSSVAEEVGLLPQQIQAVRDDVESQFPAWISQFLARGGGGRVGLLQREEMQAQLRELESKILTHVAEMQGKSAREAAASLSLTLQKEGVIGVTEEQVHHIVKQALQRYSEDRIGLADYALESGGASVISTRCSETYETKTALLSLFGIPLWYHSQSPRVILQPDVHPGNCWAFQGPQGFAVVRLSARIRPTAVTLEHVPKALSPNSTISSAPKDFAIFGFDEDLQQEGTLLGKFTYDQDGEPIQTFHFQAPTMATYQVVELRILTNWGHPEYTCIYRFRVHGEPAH
Assay: pull-down; GST or GST-FBXO2 incubated with HA-SUN2 (anti-HA resin, eluted with HA peptide) in PB buffer (20 mM HEPES pH 7.5, 130 mM KCl, 5 mM MgCl2, 1 mM DTT, 0.5 mM EDTA, 0.05% NP40) at 30 °C for 2 h, then glutathione beads; the legend speaks of lysed cells
Conditions: both partners purified

binding result: binds
B1: GST-FBXO2 WT (natural protein, human, UniProt Q9UK22 1-296, looked up)
chain: MDGDGDPESVGQPEEASPEEQPEEASAEEERPEDQQEEEAAAAAAYLDELPEPLLLRVLAALPAAELVQACRLVCLRWKELVDGAPLWLLKCQQEGLVPEGGVEEERDHWQQFYFLSKRRRNLLRNPCGEEDLEGWCDVEHGGDGWRVEELPGDSGVEFTHDESVKKYFASSFEWCRKAQVIDLQAEGYWEELLDTTQPAIVVKDWYSGRSDAGCLYELTVKLLSEHENVLAEFSSGQVAVPQDSDGGGWMEISHTFTDYGPGVRFVRFEHGGQDSVYWKGWFGARVTNSSVWVEP
notes: F-box protein FBXO2, human; also called GST tagged FBXO2
